Data on 27 variants can be found in FireProtDB (doi:10.1016/0003-9861(92)90047-z).

B1: Tryptophan synthase alpha chain, P0A877 (parent)
chain: MERYESLFAQLKERKEGAFVPFVTLGDPGIEQSLKIIDTLIEAGADALELGIPFSDPLADGPTIQNATLRAFAAGVTPAQCFEMLALIRQKHPTIPIGLLMYANLVFNKGIDEFYAQCEKVGVDSVLVADVPVEESAPFRQAALRHNVAPIFICPPNADDDLLRQIASYGRGYTYLLSRAGVTGAENRAALPLNHLVAKLKEYNAAPPLQGFGISAPDQVKAAIDAGAAGAISGSAIVKIIEQHINEPEKMLAALKVFVQPMKAATRS

This data set covers variants of B1. As to conditions: Escherichia coli (strain K12); pH 7.2; Thermal; DSC; Sodium phosphate 1 mM; reversible: yes; structure 1WQ5; whole UniProt chain shown.

The Tm is the temperature at the midpoint of the melting transition. As for P78S, the Tm came to 57.9 °C and the “change of melting temperature, mutant - wild type (higher = more stable)” value (shortened to “change of melting temperature, mutant”) is -1.6 °C.

In the case of P78L, the midpoint of thermal melting (Tm) is 61.4 °C and the “change of melting temperature, mutant” value is 1.9 °C.

Take Y115C: the Tm worked out at 57.2 °C and the “change of melting temperature, mutant” value is -2.3 °C.

In the case of G51D, the melting temperature (Tm) amounted to 55 °C and the “change of melting temperature, mutant” value is -4.5 °C.

In the case of M101T, the Tm is 67.1 °C and the “change of melting temperature, mutant” value was found to be 7.6 °C.

As for M101V, the midpoint of thermal melting (Tm) was 67.1 °C and the “change of melting temperature, mutant” value was 7.6 °C.

M101I: the Tm is 63.2 °C and the “change of melting temperature, mutant” value turned out to be 3.7 °C.

With F22S, the Tm worked out at 60.3 °C and the “change of melting temperature, mutant” value was 0.8 °C.

Take A67V: the Tm is 56.8 °C and the “change of melting temperature, mutant” value was -2.7 °C.

Turning to E49G, the Tm was 57.7 °C and the “change of melting temperature, mutant” value was -1.8 °C.

Consider D60G, for which the melting temperature (Tm) stood at 56.9 °C and the “change of melting temperature, mutant” value is -2.6 °C.

For F114L, the Tm was 56.2 °C and the “change of melting temperature, mutant” value was -3.3 °C.

With Q65R, the Tm was 58.9 °C and the “change of melting temperature, mutant” value is -0.6 °C.

On to D112N, for which the Tm is 56.4 °C and the “change of melting temperature, mutant” value was -3.1 °C.

In the case of D112G, the midpoint of thermal melting (Tm) worked out at 54.4 °C and the “change of melting temperature, mutant” value was -5.1 °C.

As for P21S, the melting temperature (Tm) was 55.2 °C and the “change of melting temperature, mutant” value is -4.3 °C.

Turning to T24M, the midpoint of thermal melting (Tm) is 61.8 °C and the “change of melting temperature, mutant” value was 2.3 °C.

As for P53T, the Tm was 55.2 °C and the “change of melting temperature, mutant” value is -4.3 °C.

For P53H, the Tm came to 56.2 °C and the “change of melting temperature, mutant” value was -3.3 °C.

With S33L, the Tm worked out at 51.9 °C and the “change of melting temperature, mutant” value is -7.6 °C.

As for P28L, the Tm was 54.9 °C and the “change of melting temperature, mutant” value was -4.6 °C.

On to D56G, for which the Tm was determined as 57.5 °C and the “change of melting temperature, mutant” value is -2 °C.

Take P62Q: the Tm amounted to 58.9 °C and the “change of melting temperature, mutant” value is -0.6 °C.

In the case of S6P, the midpoint of thermal melting (Tm) is 54.3 °C and the “change of melting temperature, mutant” value was -5.2 °C.

T63K: the Tm was found to be 56.2 °C and the “change of melting temperature, mutant” value is -3.3 °C.

For Y102H, the Tm came to 60.3 °C and the “change of melting temperature, mutant” value was determined as 0.8 °C.

For Y102C, the Tm was 60.9 °C and the “change of melting temperature, mutant” value worked out at 1.4 °C.
